Measurements: US10513547B2, “Peptides and combination of peptides and scaffolds thereof for use in immunotherapy against colorectal carcinoma (CRC) and other cancers” (Immatics Biotechnologies GmbH, priority 2015, dated 2019)

Biological target: HLA-A*02:01 (Homo sapiens, UniProt P04439, D140Y/D185E/D98H/E176V/E277Q/G131W/G231S/I119V/I121R/I166T/I218V/L300P/L318F/N151K/N90K/P208A/P217A/Q86G/Q94H/R138H/R169H/T345S)
Experiment: MHC binding assay (UV-ligand exchange, beta2m ELISA, peptide exchange yield)
Conditions: binding to HLA-A*02:01
Description: Candidate peptides for T cell based therapies according to the present invention were further tested for their MHC binding capacity (affinity). The individual peptide-MHC complexes were produced by UV-ligand exchange, where a UV-sensitive peptide is cleaved upon UV-irradiation, and exchanged with the peptide of interest as analyzed. Only peptide candidates that can effectively bind and stabilize the peptide-receptive MHC molecules prevent dissociation of the MHC complexes. To determine the yield of the exchange reaction, an ELISA was performed based on the detection of the light chain ([…]) of stabilized MHC complexes. The assay was performed as generally described in Rodenko et al. (Rodenko et al., 2006).
96 well MAXISorp plates (NUNC) were coated over night with 2 ug/ml streptavidin in PBS at room temperature, washed 4× and blocked for 1 h at 37° C. in 2% BSA containing blocking buffer. Refolded HLA-A*02:01/MLA-001 monomers served as standards, covering the range of 15-500 ng/ml. Peptide-MHC monomers of the UV-exchange reaction were diluted 100 fold in blocking buffer. Samples were incubated for 1 h at 37° C., washed four times, incubated with 2 ug/ml HRP conjugated anti-β2m for 1 h at 37° C., washed again and detected with TMB solution that is stopped with […]. Absorption was measured at 450 nm. Candidate peptides that show a high exchange yield (preferably higher than 50%, most preferred higher than 75%) are generally preferred for a generation and production of antibodies or fragments thereof, and/or T cell receptors or fragments thereof, as they show sufficient avidity to the MHC molecules and prevent dissociation of the MHC complexes.

Substance | Peptide exchange (MHC class I binding score, peptide exchange yield)
90 (GLLKPGLNVVL; listed as Homo sapiens) [compound 90] | “+++” (≥50 = +++)
91 (TVDVATPSV; listed as Homo sapiens) [compound 91] | “+++” (≥50 = +++)
92 (WIDDTSAFV; listed as Homo sapiens) [compound 92] | “+++” (≥50 = +++)
93 (SLQELRLLL; listed as Homo sapiens) [compound 93] | “++++” (≥75% = ++++)
94 (KSMDIVLTV; listed as Homo sapiens) [compound 94] | “+++” (≥50 = +++)
95 (AILDAHIEV; listed as Homo sapiens) [compound 95] | “++++” (≥75% = ++++)
96 (KLYSRLVYV; listed as Homo sapiens) [compound 96] | “++” (≥20% = ++)
97 (ALWWGVVTV; listed as Homo sapiens) [compound 97] | “++” (≥20% = ++)
98 (AMNGKSFSV; listed as Homo sapiens) [compound 98] | “++” (≥20% = ++)
99 (KLLEVDLDTV; listed as Homo sapiens) [compound 99] | “+++” (≥50 = +++)
100 (SLDDFLATA; listed as Homo sapiens) [compound 100] | “+++” (≥50 = +++)
101 (GLSEGHTFQV; listed as Homo sapiens) [compound 101] | “+++” (≥50 = +++)
102 (KILVSLIEV; listed as Homo sapiens) [compound 102] | “+++” (≥50 = +++)
103 (FLFGYPKRL; listed as Homo sapiens) [compound 103] | “++” (≥20% = ++)
104 (ILLTIKDDTIYL; listed as Homo sapiens) [compound 104] | “+++” (≥50 = +++)
105 (YALDLSTFL; listed as Homo sapiens) [compound 105] | “+++” (≥50 = +++)
106 (SLISEKILL; listed as Homo sapiens) [compound 106] | “+++” (≥50 = +++)
107 (ALLGGGPYML; listed as Homo sapiens) [compound 107] | “+++” (≥50 = +++)
108 (SLAELVPGVGGI; listed as Homo sapiens) [compound 108] | “+++” (≥50 = +++)
109 (ALDGDQMEL; listed as Homo sapiens) [compound 109] | “++” (≥20% = ++)
110 (LLGELPRLLLL; listed as Homo sapiens) [compound 110] | “+++” (≥50 = +++)
112 (KLGQVLIYL; listed as Homo sapiens) [compound 112] | “++” (≥20% = ++)
113 (ILYDLQQNL; listed as Homo sapiens) [compound 113] | “++” (≥20% = ++)
114 (TAVGHALVL; listed as Homo sapiens) [compound 114] | “+” (≥10% = +)
115 (SLFDVSHML; listed as Homo sapiens) [compound 115] | “+++” (≥50 = +++)
116 (LVYQFVHPI; listed as Homo sapiens) [compound 116] | “++” (≥20% = ++)

Further lines, results first:

Peptide exchange (MHC class I binding score, peptide exchange yield) | Substance
“++” (≥20% = ++) | 117 (TLQPVDNSTISL; listed as Homo sapiens) [compound 117]
“+++” (≥50 = +++) | 118 (LLADLKTMV; listed as Homo sapiens) [compound 118]
“++” (≥20% = ++) | 119 (ILYQTVTGL; listed as Homo sapiens) [compound 119]
“++” (≥20% = ++) | 120 (VLYEGVDEV; listed as Homo sapiens) [compound 120]
“+++” (≥50 = +++) | 121 (SLAPNIISQL; listed as Homo sapiens) [compound 121]
“+++” (≥50 = +++) | 122 (SLMGMVLKL; listed as Homo sapiens) [compound 122]
“++++” (≥75% = ++++) | 125 (KLGDFGLLVEL; listed as Homo sapiens) [compound 125]
“+++” (≥50 = +++) | 126 (TLAKYLMEL; listed as Homo sapiens) [compound 126]
“++” (≥20% = ++) | 128 (MLDDRAYLV; listed as Homo sapiens) [compound 128]
“+++” (≥50 = +++) | 129 (VLIDVLKEL; listed as Homo sapiens) [compound 129]
“++” (≥20% = ++) | 130 (GLGGSQLIDTHL; listed as Homo sapiens) [compound 130]
“++” (≥20% = ++) | 131 (KLLDVVHPA; listed as Homo sapiens) [compound 131]
“++++” (≥75% = ++++) | 134 (GVAGGSILKGV; listed as Homo sapiens) [compound 134]
“++” (≥20% = ++) | 135 (KLQEEIPVL; listed as Homo sapiens) [compound 135]
“+++” (≥50 = +++) | 137 (QLTEIKPLL; listed as Homo sapiens) [compound 137]
“+++” (≥50 = +++) | 138 (KQFEGTVEI; listed as Homo sapiens) [compound 138]
“+++” (≥50 = +++) | 139 (VLLNEILEQV; listed as Homo sapiens) [compound 139]
“+++” (≥50 = +++) | 140 (LLNEILEQV; listed as Homo sapiens) [compound 140]

Peptide exchange (MHC class I binding score, peptide exchange yield) | Substance
“+++” (≥50 = +++) | 143 (KLSDVWKEL; listed as Homo sapiens) [compound 143]
“+++” (≥50 = +++) | 144 (LLNDRIWLA; listed as Homo sapiens) [compound 144]
“+++” (≥50 = +++) | 145 (LLLEVVKQV; listed as Homo sapiens) [compound 145]
“++” (≥20% = ++) | 146 (ALSDETWGL; listed as Homo sapiens) [compound 146]
“++++” (≥75% = ++++) | 147 (TLTELRAFL; listed as Homo sapiens) [compound 147]
“+++” (≥50 = +++) | 148 (RLLENMTEVV; listed as Homo sapiens) [compound 148]
“+++” (≥50 = +++) | 149 (YQFDKVGILTL; listed as Homo sapiens) [compound 149]
“+++” (≥50 = +++) | 151 (SAQGSDVSLTACKV; listed as Homo sapiens) [compound 151]
“++” (≥20% = ++) | 152 (KLLAVIHEL; listed as Homo sapiens) [compound 152]
“+++” (≥50 = +++) | 153 (ILFSEDSTKLFV; listed as Homo sapiens) [compound 153]
“+++” (≥50 = +++) | 154 (KLPSETIFVGC; listed as Homo sapiens) [compound 154]
“+++” (≥50 = +++) | 155 (RLLGEEVVRV; listed as Homo sapiens) [compound 155]
“++++” (≥75% = ++++) | 156 (SLMMTIINL; listed as Homo sapiens) [compound 156]
“+++” (≥50 = +++) | 157 (SLIERDLKL; listed as Homo sapiens) [compound 157]
“+++” (≥50 = +++) | 158 (GLLDPSVFHV; listed as Homo sapiens) [compound 158]
“++” (≥20% = ++) | 159 (VLVDDDGIKVV; listed as Homo sapiens) [compound 159]
“+++” (≥50 = +++) | 160 (KLLEFDQLQL; listed as Homo sapiens) [compound 160]
